The record followed here is article PMC9352680, “A comprehensive thermodynamic model for RNA binding by the Saccharomyces cerevisiae Pumilio protein PUF4”.

Changes are numbered by the printed parent chain. Names may count otherwise.

T1: PUF4 RNA-binding domain (Saccharomyces cerevisiae, UniProt P25339 537-888)
T1 sequence: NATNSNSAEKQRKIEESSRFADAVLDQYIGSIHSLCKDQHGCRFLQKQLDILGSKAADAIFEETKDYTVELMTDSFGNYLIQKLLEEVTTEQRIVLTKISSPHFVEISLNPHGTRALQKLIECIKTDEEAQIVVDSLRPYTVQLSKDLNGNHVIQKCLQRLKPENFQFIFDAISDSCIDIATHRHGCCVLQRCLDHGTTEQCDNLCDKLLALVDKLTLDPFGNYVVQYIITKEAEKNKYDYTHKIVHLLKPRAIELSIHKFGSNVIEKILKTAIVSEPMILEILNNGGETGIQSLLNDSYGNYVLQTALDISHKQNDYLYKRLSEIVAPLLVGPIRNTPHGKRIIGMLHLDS

B1: Id_ii_S2_P3E.3_K3.2_C3.2_[T-1A]_H3.2_A3.1_F3.1_T3.2_[T9A]_[A10G] (ssRNA)
RNA: UUUGAUUAAUAUGAUAUCGUUCUUUCUCAUAUAUAUAAGUUCUUUCUCGAUAUCAUAUUAAUCUUU
B2: Id_ii_S2_P3E.3_K3.2_C3.2_H3.2_A3.1_F3.1_T3.2_[A10G] (ssRNA)
RNA: B1 RNA with A29U, A38U
B3: Id_ii_S2_P3E.3_K3.2_C3.2_[T-1C]_H3.2_A3.1_F3.1_T3.2_[T9C]_[A10T] (ssRNA)
RNA: B1 RNA with A29C, A38C, G39U
B4: Id_ii_S2_P3E.4_K3.3_C3.2_[C-2G]_H3.3_A3.1_F3.1_T3.2_[T9A]_[A10T] (ssRNA)
RNA: B1 RNA with C28G, A29U, U30A, A31C, U32A, A33C, G39U
B5: Id_ii_S2_P3E.4_K3.3_C3.2_[C-2T]_[T-1A]_H3.3_A3.1_F3.1_T3.2_[T9A] (ssRNA)
RNA: B1 RNA with C28U, U30A, A31C, U32A, A33C, G39A
B6: Id_ii_S2_P3E.4_K3.3_C3.2_[C-2T]_H3.3_A3.1_F3.1_T3.2_[T9G]_[A10C] (ssRNA)
RNA: B1 RNA with C28U, A29U, U30A, A31C, U32A, A33C, A38G, G39C
B7: Id_ii_S2_P3E.4_K3.3_C3.2_[C-2T]_[T-1A]_H3.3_A3.1_F3.1_T3.2_[T9A]_[A10T] (ssRNA)
RNA: B1 RNA with C28U, U30A, A31C, U32A, A33C, G39U
B8: Id_ii_S2_P3E.3_K3.2_C3.2_H3.2_A3.1_F3.1_T3.2_[T9A]_[A10C] (ssRNA)
RNA: B1 RNA with A29U, G39C
B9: Id_ii_S2_P3E.4_K3.3_C3.2_[C-2G]_[T-1C]_H3.3_A3.1_F3.1_T3.2_[T9A] (ssRNA)
RNA: B1 RNA with C28G, A29C, U30A, A31C, U32A, A33C, G39A
B10: Id_ii_S2_P3E.4_K3.3_C3.2_[C-2T]_[T-1C]_H3.3_A3.1_F3.1_T3.2_[A10C] (ssRNA)
RNA: B1 RNA with C28U, A29C, U30A, A31C, U32A, A33C, A38U, G39C
B11: Id_ii_S2_P3E.3_K3.2_C3.2_[T-1A]_H3.2_A3.1_F3.1_T3.2_[T9A]_[A10C] (ssRNA)
RNA: B1 RNA with G39C
B12: Id_ii_S2_P3E.3_K3.2_C3.2_H3.2_A3.1_F3.1_T3.2_[A10C] (ssRNA)
RNA: B1 RNA with A29U, A38U, G39C
B13: Id_ii_S2_P3E.3_K3.2_C3.2_[T-1C]_H3.2_A3.1_F3.1_T3.2_[T9C]_[A10C] (ssRNA)
RNA: B1 RNA with A29C, A38C, G39C
B14: Id_ii_S2_P3E.3_K3.2_C3.2_[T-1C]_H3.2_A3.1_F3.1_T3.2_[T9G]_[A10T] (ssRNA)
RNA: B1 RNA with A29C, A38G, G39U
B15: Id_ii_S2_P3E.4_K3.3_C3.2_[C-2G]_H3.3_A3.1_F3.1_T3.2 (ssRNA)
RNA: B1 RNA with C28G, A29U, U30A, A31C, U32A, A33C, A38U, G39A
B16: Id_ii_S2_P3E.3_K3.2_C3.2_[T-1C]_H3.2_A3.1_F3.1_T3.2_[T9A]_[A10C] (ssRNA)
RNA: B1 RNA with A29C, G39C
B17: Id_ii_S2_P3E.4_K3.3_C3.2_[C-2G]_H3.3_A3.1_F3.1_T3.2_[T9C]_[A10C] (ssRNA)
RNA: B1 RNA with C28G, A29U, U30A, A31C, U32A, A33C, A38C, G39C
B18: Id_ii_S2_P3E.4_K3.3_C3.2_[C-2T]_[T-1C]_H3.3_A3.1_F3.1_T3.2_[T9A]_[A10G] (ssRNA)
RNA: B1 RNA with C28U, A29C, U30A, A31C, U32A, A33C
B19: Id_ii_S2_P3E.3_K3.2_C3.2_H3.2_A3.1_F3.1_T3.2_[T9C] (ssRNA)
RNA: B1 RNA with A29U, A38C, G39A
B20: Id_ii_S2_P3E.4_K3.3_C3.2_[C-2T]_[T-1A]_H3.3_A3.1_F3.1_T3.2_[T9C]_[A10T] (ssRNA)
RNA: B1 RNA with C28U, U30A, A31C, U32A, A33C, A38C, G39U
B21: Id_ii_S2_P3E.4_K3.3_C3.2_[C-2T]_[T-1C]_H3.3_A3.1_F3.1_T3.2_[T9C] (ssRNA)
RNA: B1 RNA with C28U, A29C, U30A, A31C, U32A, A33C, A38C, G39A
B22: Id_ii_S2_P3E.3_K3.2_C3.2_[T-1A]_H3.2_A3.1_F3.1_T3.2_[T9C]_[A10C] (ssRNA)
RNA: B1 RNA with A38C, G39C
B23: Id_ii_S2_P3E.4_K3.3_C3.2_[C-2G]_H3.3_A3.1_F3.1_T3.2_[T9C]_[A10T] (ssRNA)
RNA: B1 RNA with C28G, A29U, U30A, A31C, U32A, A33C, A38C, G39U
B24: Id_ii_S2_P3E.4_K3.3_C3.2_[C-2G]_H3.3_A3.1_F3.1_T3.2_[T9A]_[A10C] (ssRNA)
RNA: B1 RNA with C28G, A29U, U30A, A31C, U32A, A33C, G39C
B25: Id_ii_S2_P3E.4_K3.3_C3.2_[C-2T]_[T-1C]_H3.3_A3.1_F3.1_T3.2_[T9C]_[A10T] (ssRNA)
RNA: B1 RNA with C28U, A29C, U30A, A31C, U32A, A33C, A38C, G39U
B26: Id_ii_S2_P3E.3_K3.2_C3.2_[T-1C]_H3.2_A3.1_F3.1_T3.2_[T9A] (ssRNA)
RNA: B1 RNA with A29C, G39A

The series concerns the target T1, PUF4 RNA-binding domain. Nature of the series: Mg; RNA-MaP; 20 mM Na-HEPES pH 7.4, 30 mM KOAc, 0.75 mM MgCl2, 0.1% Tween-20, 5% glycerol, 0.1 mg/mL BSA, 2 mM DTT; 25 C; 0.0125-409.6 nM protein. Particulars: tags: N-His6-TEV cleaved; C-SNAP kept, Cy3B-labelled; label: tethered on chip by stalled RNA polymerase.
Consider B1, for which the Kd – broadly, the constant that tells how readily two partners part at equilibrium – was found to be 1090 nM.

The molecule B2 displayed a Kd of 83.8 nM.

As for B3, binding was put at a Kd of 120 nM.

In turn, B4 showed a Kd of 0.478 nM.

For the molecule B5, the Kd was > 2300 nM.

Consider B6, for which binding was put at a Kd of 898 nM.

Molecule B7 had a Kd of 2150 nM.

B8 gave a Kd of 112 nM.

Molecule B9 returned a Kd of 38.5 nM.

The molecule B10 registered a Kd of 1260 nM.

In turn, B11 registered a Kd of 218 nM.

The molecule B12 had a Kd of 83.2 nM.

In the case of B13, the Kd stood at 245 nM.

As to B14, the Kd was found to be 718 nM.

For B15, binding was characterised by a dissociation constant (Kd) of 0.551 nM.

In turn, B16 registered a Kd of 122 nM.

The molecule B17 yielded a Kd of 0.875 nM.

Turning to B18, the Kd is > 2300 nM.

Regarding B19, the affinity, expressed as Kd, was 108 nM.

B20 yielded a Kd of 1860 nM.

B21 returned a Kd of 417 nM.

Molecule B22 had a Kd of 177 nM.

As to B23, binding was characterised by a dissociation constant (Kd) of 1.98 nM.

B24 registered a Kd of 0.742 nM.

As for B25, the Kd is 1260 nM.

As to B26, binding was put at a Kd of 251 nM.

For the molecule UCUCUUUGCAUUAUCAUCUCUU (ssRNA) [Ib_S1_P5E.1_K5.1_C5.1_H5.1_[T3C]_A5.1_F5.1_[T9C]_T5.1], the Kd was > 2300 nM.
